This note sets out measurements from US20120238493A1 (INDIANA UNIVERSITY RESEARCH AND TECHNOLOGY, published 2012).

What all share (assay): cell-based or functional assay
For assay [1], the target named is T1, glucagon receptor (UniProt P47871 26-477, limits assumed).
The target in assay [2] is T2, GIP receptor (UniProt P48546 22-466, limits assumed).
T2 sequence (looked up): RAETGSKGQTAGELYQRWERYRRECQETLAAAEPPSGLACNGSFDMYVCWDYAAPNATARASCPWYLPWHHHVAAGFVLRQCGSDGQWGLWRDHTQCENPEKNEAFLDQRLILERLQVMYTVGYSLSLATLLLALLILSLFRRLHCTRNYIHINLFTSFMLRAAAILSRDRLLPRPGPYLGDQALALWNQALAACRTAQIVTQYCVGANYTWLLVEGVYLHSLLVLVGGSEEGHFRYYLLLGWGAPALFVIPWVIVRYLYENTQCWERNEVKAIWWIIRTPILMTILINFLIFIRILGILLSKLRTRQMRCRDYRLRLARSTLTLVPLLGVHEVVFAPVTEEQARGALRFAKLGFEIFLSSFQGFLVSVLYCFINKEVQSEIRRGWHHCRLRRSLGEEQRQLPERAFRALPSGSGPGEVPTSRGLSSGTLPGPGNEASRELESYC

Assay [3] addresses T3, GLP-1 receptor (UniProt P43220 24-463, limits assumed).
The target of assay [4] is T1, glucagon receptor. This is another data set of the same source.
The target of assay [5] is T2, GIP receptor. This is another data set of the same source.
The target of assay [6] is T3, GLP-1 receptor. The source holds these as a separate data set.
The target of assay [7] is T1, glucagon receptor. The source holds these as a separate data set.
Assay [8] addresses T2, GIP receptor. The source holds these as a separate data set.
Assay [9] has as its target T3, GLP-1 receptor. This is another data set of the same source.
Target sequence in this assay (P43220 24-463 limits assumed): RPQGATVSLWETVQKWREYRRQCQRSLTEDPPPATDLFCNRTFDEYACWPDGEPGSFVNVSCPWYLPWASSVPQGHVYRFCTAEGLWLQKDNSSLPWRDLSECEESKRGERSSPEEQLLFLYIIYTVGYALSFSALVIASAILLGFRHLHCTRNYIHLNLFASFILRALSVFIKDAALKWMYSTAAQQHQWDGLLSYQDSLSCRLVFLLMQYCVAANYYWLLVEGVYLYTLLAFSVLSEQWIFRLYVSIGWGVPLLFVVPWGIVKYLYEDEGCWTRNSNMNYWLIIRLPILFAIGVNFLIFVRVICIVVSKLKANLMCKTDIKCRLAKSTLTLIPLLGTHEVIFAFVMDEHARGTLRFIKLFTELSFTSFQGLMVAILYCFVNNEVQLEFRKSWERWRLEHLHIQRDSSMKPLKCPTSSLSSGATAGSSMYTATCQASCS

Read-outs that look alike come from different tables or passages of the source. *1 amine or outer side, *2 acyl side, *3 side chain or, on linkers, in order; H or OH if unused. Bridges are numbered along the chain shown (N, C = ends). Where no end group is shown, it is not given here. Side-chain parts run from the residue outwards. [ ]: non-standard residue; d: D form. The star is where a group is joined. Isobutyryl(2-imidazol-4-yl) = CC(C)(C(=O)*)c1c[nH]cn1; PEG40kDa = 40 kDa polyethylene glycol attached; γGlu = O=C(O)[C@H](CCC(=O)[*:2])N[*:1]; Palmitoyl = CCCCCCCCCCCCCCCC(=O)*; Lauroyl = CCCCCCCCCCCC(=O)*; Aib = CC(C)(N)C(=O)O

T1 sequence (P47871 26-477 limits assumed): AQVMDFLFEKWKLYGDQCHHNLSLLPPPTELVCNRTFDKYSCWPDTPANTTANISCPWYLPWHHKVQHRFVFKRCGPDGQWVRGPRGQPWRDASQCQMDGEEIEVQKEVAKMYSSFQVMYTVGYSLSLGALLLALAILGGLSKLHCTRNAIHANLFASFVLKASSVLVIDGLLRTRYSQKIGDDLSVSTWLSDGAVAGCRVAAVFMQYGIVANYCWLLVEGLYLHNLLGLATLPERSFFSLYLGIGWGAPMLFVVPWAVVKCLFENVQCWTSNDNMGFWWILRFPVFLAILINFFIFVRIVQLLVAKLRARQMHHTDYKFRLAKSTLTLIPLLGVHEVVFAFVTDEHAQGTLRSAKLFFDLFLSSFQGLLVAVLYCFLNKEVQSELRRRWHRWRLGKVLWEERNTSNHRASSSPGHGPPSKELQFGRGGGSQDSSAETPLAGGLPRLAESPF

With Y[Aib]EGTFISDYSIAMDKIHQQDFVNWLLAQKGKKNWLKHNITQ-NH2 (not fully specified) [mt-217 (SEQ ID NO: 19)], the “EC50 (cAMP reporter)” value came to 13.9 nM in assay [1], 9.57 nM in [2] and 0.222 nM in assay [3]. The “relative activity (to native hormone)” value in assay [1] is 0.82%; in assay [2], 0.2%; in [3], 11.3%.
Consider H[Aib]QGTFTSDK(Palmitoyl)SKYLD[Aib]RAAQDFVQWLVKGGPSSGAPPPS-NH2 [Analog No. 53: Aib2, K10acyl, Aib16, A18, V27, K28, G29 + CEX (SEQ ID NO: 35)], for which the entries for the “EC50 (cAMP reporter)” value in assay [4], in [5] and in assay [6] were 0.011 nM, 0.073 nM and 0.005 nM, respectively.
For the molecule Y[Aib]PGTFISDYSIAMDKIHQQDFVNWLLAQKGKKNWLKHNITQ-NH2 (not fully specified) [mt-219 (SEQ ID NO: 21)], the “EC50 (cAMP reporter)” value in assay [1] is 17.6 nM; in assay [2] it was 6.17 nM; in assay [3], 0.151 nM. Besides, the “relative activity (to native hormone)” value in assay [1] stood at 0.65%; in assay [2], 0.31%; in assay [3] it was 16.6%.
Consider Y[Aib]EGTFISDYSIAMDKIHQQDFVCWLLAQKGKKNWLKHNITQ-NH2 (not fully specified) [mt-220 (SEQ ID NO: 22)], for which the “EC50 (cAMP reporter)” value in assay [1] turned out to be 9.67 nM; in [2], 10.3 nM; in assay [3], 0.18 nM. Also, the results for the “relative activity (to native hormone)” value in assay [1], in [2] and in assay [3] were 1.18%, 0.19% and 13.9%, respectively.

B1: peptide of SEQ ID NO: 81 (peptide)
peptide: Y[Aib]QGTFTSDK([γGlu-γGlu-Palmitoyl])SIYLDKQAA[Aib]EFVNWLLAGGPSSGAPPPS-NH2
modifications: N-terminus assumed
SMILES: CCCCCCCCCCCCCCCC(=O)N[C@@H](CCC(=O)N[C@@H](CCC(=O)NCCCC[C@H](NC(=O)[C@H](CC(=O)O)NC(=O)[C@H](CO)NC(=O)[C@@H](NC(=O)[C@H](Cc1ccccc1)NC(=O)[C@@H](NC(=O)CNC(=O)[C@H](CCC(N)=O)NC(=O)C(C)(C)NC(=O)[C@@H](N)Cc1ccc(O)cc1)[C@@H](C)O)[C@@H](C)O)C(=O)N[C@@H](CO)C(=O)N[C@H](C(=O)N[C@@H](Cc1ccc(O)cc1)C(=O)N[C@@H](CC(C)C)C(=O)N[C@@H](CC(=O)O)C(=O)N[C@@H](CCCCN)C(=O)N[C@@H](CCC(N)=O)C(=O)N[C@@H](C)C(=O)N[C@@H](C)C(=O)NC(C)(C)C(=O)N[C@@H](CCC(=O)O)C(=O)N[C@@H](Cc1ccccc1)C(=O)N[C@H](C(=O)N[C@@H](CC(N)=O)C(=O)N[C@@H](Cc1c[nH]c2ccccc12)C(=O)N[C@@H](CC(C)C)C(=O)N[C@@H](CC(C)C)C(=O)N[C@@H](C)C(=O)NCC(=O)NCC(=O)N1CCC[C@H]1C(=O)N[C@@H](CO)C(=O)N[C@@H](CO)C(=O)NCC(=O)N[C@@H](C)C(=O)N1CCC[C@H]1C(=O)N1CCC[C@H]1C(=O)N1CCC[C@H]1C(=O)N[C@@H](CO)C(N)=O)C(C)C)[C@@H](C)CC)C(=O)O)C(=O)O
Regarding B1, the “EC50 (cAMP reporter)” value in assay [7] was 0.073 nM; in assay [8], 0.005 nM; in assay [9], 0.008 nM.
For the molecule Y[Aib]PGTFISDYSIAMDKIHQQDFVC(PEG40kDa)WLLAQKGKKNWLKHNITQ-NH2 (not fully specified) [mt-228 (SEQ ID NO: 26)], the “EC50 (cAMP reporter)” value in assay [1] was found to be 5.36 nM; in assay [2], 2.27 nM; in assay [3], 0.146 nM.
Regarding H[dS]QGTFTSDKSKYLDERAAQDFVQWLLDGGPSSGAPPPS-NH2 (not fully specified (residue 10)) [Analog No. 29: dSer2, K10acyl, E16, A18, L27, D28, G29 + CEX (SEQ ID NO: 27)], the “EC50 (cAMP reporter)” value in assay [4] was 0.003 nM; in assay [5], 0.085 nM; in assay [6], 0.002 nM.
In the case of H[Aib]EGTFTSDK(Palmitoyl)SKYLDERRA[Aib]DFVQWLLDGGPSSGAPPPS-NH2 [Analog No. 65: Aib2, E3, K10acyl, E16, Aib20, L27, D28, G29 + CEX (SEQ ID NO: 41)], the “EC50 (cAMP reporter)” value in assay [4] is 0.221 nM; in [5], 0.013 nM; in assay [6], 0.006 nM.

B2: mt-218 (SEQ ID NO: 20) (peptide)
peptide: YXEGTFISDYSIAMDKIHQQDFVNWLLAQKGKKNWLKHNITQ
modifications: not fully specified; AIB at position 2; C-terminal amide; Glu16-Lys20 lactam in some Table 3 peptides, absent in others (which ones is not stated)
For B2, the “EC50 (cAMP reporter)” value in assay [1] stood at 16.3 nM; in [2], 14.3 nM; in [3], 0.338 nM. In addition, the “relative activity (to native hormone)” value in [1] worked out at 0.7%; in [2] it was 0.13%; in assay [3], 7.4%.
As for Y[Aib]QGTFTSDYSIYLDEQAAKEFVNWLLAGGPSSGAPPPSK([Ala-Cys(PEG 40 kDa)-Ac])-NH2 (lactam 16-20) [mt-225 (SEQ ID NO: 23)], the “EC50 (cAMP reporter)” value in assay [1] stood at 2.71 nM; in assay [2] it was 1.9 nM; in assay [3] it was 0.098 nM.
Take Y[Aib]QGTFTSDYSIYLDKQAA[Aib]EFVC(40K‑TE PEG)WLLAGGPSSGAPPPSK(Lauroyl)-NH2 [peptide of SEQ ID NO: 173]: the “EC50 (cAMP reporter)” value in assay [7] was determined as 0.19 nM; in [8] it was 0.089 nM; in assay [9], 0.011 nM.
The corresponding values for Y[Aib]EGTFTSDYSIYLDKQAA[Aib]EFVNWLLAGGPSSGAPPPSC(PEG 40 kDa)-NH2 [peptide of SEQ ID NO: 175] are 0.62 nM, 0.1 nM and 0.066 nM.
Regarding Y[Aib]QGTFTSDYSIYLDKQAA[Aib]EFVC(40K‑TE PEG)WLLAGGPSSGAPPPSK(C8)-NH2 [peptide of SEQ ID NO: 172], the entries for the “EC50 (cAMP reporter)” value in assay [7], in [8] and in assay [9] were 3.06 nM, 0.487 nM and 0.108 nM, respectively.
For H[Aib]QGTFTSDKSKYLD[Aib]RAAQDFVQWLKDGGPSSGAPPPS-NH2 (not fully specified (residue 10)) [Analog No. 54: Aib2, K10acyl, Aib16, A18, K27, D28, G29 + CEX (SEQ ID NO: 36)], the “EC50 (cAMP reporter)” value in [4] was found to be 0.008 nM; in assay [5] it was 0.171 nM; in assay [6], 0.004 nM.
Regarding H[Aib]QGTFTSDKSKYLD[Aib]RAAQDFVQWLMDGGPSSGAPPPS-NH2 (not fully specified (residue 10)) [Analog No. 49: Aib2, K10acyl, Aib16, A10, D28, G29 + CEX (SEQ ID NO: 33)], the results for the “EC50 (cAMP reporter)” value in [4], in [5] and in assay [6] were 0.005 nM, 0.248 nM and 0.004 nM, respectively.
As to Y[Aib]QGTFTSDYSIYLDEQAAKEFVNWLLAGGPSSGAPPPSK-NH2 (not fully specified) [mt-227 (SEQ ID NO: 25)], the “EC50 (cAMP reporter)” value in [1] was found to be 4.24 nM; in [2], 1.32 nM; in [3] it was 0.08 nM.
On to H[Aib]QGTFTSDKSKYLDERAAQDFVQWLLDGRG-NH2 (not fully specified (residue 10)) [Analog No. 34: Aib2, K10acyl, E16, A18, L27, D28, GRG29-31 (SEQ ID NO: 29)], for which the “EC50 (cAMP reporter)” value in [4] was 0.007 nM; in assay [5], 0.064 nM; in [6], 0.003 nM.
For [Isobutyryl(2-imidazol-4-yl)][dS]QGTFTSDKSKYLDERAAQDFVQWLLDT-NH2 (not fully specified (residue 10)) [Analog No. 44: DMIA1, dSer2, K10acyl, E16, A18, L27, D28 (SEQ ID NO: 32)], the “EC50 (cAMP reporter)” value in [4] turned out to be 0.004 nM; in assay [5], 0.103 nM; in assay [6] it was 0.003 nM.
Turning to H[dS]QGTFTSDKSKYLDERRA[Aib]EFVQWLLDT-NH2 (not fully specified (residue 10)) [Analog No. 36: dSer2, K10acyl, E16, Aib20, E21, L27, D28 (SEQ ID NO: 30)], the figures for the “EC50 (cAMP reporter)” value in assay [4], in assay [5] and in assay [6] were 0.008 nM, 0.25 nM and 0.0031 nM, respectively.
The corresponding values for H[Aib]EGTFTSDKSKYLDERRA[Aib]EFVQWLLDT-NH2 (not fully specified (residue 10)) [Analog No. 64: Aib2, E3, K10acyl, E16, Aib20, E21, L27, D28 (SEQ ID NO: 40)] are 0.042 nM, 0.024 nM and 0.006 nM.
On to Y[Aib]PGTFISDYSIAMDKIHQQDFVCWLLAQKGKKNWLKHNITQ-NH2 (not fully specified) [mt-226 (SEQ ID NO: 24)], for which the results for the “EC50 (cAMP reporter)” value in [1], in assay [2] and in assay [3] were 3.46 nM, 1.47 nM and 0.097 nM, respectively.
